Test [1] addresses T1, Gallus gallus FANCD2 (Gallus gallus (chicken), UniProt Q68Y81 1-1439). Briefly: cross-linking.
In test [2] the target is T1, Gallus gallus FANCD2. The test is described as follows: cryo-EM structure.

T1 sequence (Q68Y81 whole entry): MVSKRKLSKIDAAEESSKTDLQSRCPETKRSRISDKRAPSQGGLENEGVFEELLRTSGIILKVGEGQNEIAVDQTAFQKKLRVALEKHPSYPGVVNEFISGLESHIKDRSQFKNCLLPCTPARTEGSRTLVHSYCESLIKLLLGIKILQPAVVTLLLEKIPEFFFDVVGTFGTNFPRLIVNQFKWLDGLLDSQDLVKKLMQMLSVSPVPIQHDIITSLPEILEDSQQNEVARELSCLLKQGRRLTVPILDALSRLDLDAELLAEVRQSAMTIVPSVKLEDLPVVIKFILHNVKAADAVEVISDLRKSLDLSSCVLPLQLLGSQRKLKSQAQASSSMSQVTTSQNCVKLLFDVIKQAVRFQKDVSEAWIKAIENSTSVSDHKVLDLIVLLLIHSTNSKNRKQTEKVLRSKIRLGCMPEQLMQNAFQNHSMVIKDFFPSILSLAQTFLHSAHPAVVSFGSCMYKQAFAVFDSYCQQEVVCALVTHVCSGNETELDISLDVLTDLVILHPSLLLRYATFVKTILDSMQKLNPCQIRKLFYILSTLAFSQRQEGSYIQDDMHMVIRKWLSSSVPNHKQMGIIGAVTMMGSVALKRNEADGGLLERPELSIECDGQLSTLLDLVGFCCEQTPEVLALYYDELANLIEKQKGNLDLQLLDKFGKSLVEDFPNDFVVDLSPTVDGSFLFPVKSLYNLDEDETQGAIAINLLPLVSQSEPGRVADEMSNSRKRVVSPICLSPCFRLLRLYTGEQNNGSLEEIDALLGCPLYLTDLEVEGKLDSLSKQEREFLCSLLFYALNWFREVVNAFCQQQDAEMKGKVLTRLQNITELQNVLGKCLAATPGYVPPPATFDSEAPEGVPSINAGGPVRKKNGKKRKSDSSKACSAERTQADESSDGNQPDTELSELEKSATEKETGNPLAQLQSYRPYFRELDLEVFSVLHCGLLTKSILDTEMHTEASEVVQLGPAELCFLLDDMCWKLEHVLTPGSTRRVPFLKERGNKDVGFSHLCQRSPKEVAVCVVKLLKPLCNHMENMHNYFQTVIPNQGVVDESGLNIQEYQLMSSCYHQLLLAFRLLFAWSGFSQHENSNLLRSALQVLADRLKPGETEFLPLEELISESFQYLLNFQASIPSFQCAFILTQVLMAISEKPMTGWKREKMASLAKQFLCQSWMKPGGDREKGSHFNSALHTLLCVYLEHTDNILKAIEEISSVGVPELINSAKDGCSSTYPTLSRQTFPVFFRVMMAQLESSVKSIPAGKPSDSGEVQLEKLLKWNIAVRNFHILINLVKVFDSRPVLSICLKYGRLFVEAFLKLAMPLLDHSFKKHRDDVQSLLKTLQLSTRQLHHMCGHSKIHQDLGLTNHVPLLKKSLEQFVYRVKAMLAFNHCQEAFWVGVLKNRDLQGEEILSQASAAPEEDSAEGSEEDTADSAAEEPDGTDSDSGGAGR

B1: Gallus gallus FANCI, wild type (natural protein, Gallus gallus (chicken), UniProt B0I564 1-1338, looked up)
chain: MAQRILQLAAEGSPERLQEALQGLTEGELGDMVTRQALRGRETAALLKGIFKGSPCSQQSGVLRRLQVYKHCVSLVESGDLHVGKVSEIIGLLMLEARQLPGHALAELATLFVEVIKRGSLSNGKSLELFSTVLTALSNSKESLAYGKGELNGEEFKKQLINTLCSSKWDPQCVIHLANMFRDIPLSGEELQFVVEKVLRMFSKLDLQEIPPLVYQLLLLSAKGSKKTVLEGIISFFNQLDKRQKEEQRVPQSADLEVATVPLDQLRHVEGTVILHIVSAINLDQDIGEELIKHLKTEQQKDPGKALCPFSVSLLLSTAVKHRLQEQIFDFLKTSITRSCKDLQILQASKFLQDLCPQQYDVTAVILEVVKNSAFGWDHVTQGLVDLGFSLMESYEPKKSFGGKAAETNLGLSKMPAQQACKLGASILLETFKVHEPIRSDILEQVLNRVLTKAASPVSHFIDLLSNIVVSAPLVLQNSSSRVTETFDNLSFLPIDTVQGLLRAVQPLLKVSMSVRDSLILVLQKAIFSRQLDARKAAVAGFLLLLRNFKILGSLTSSQCSQAIGATQVQADVHACYNSAANEAFCLEILGSLRRCLSQQADVRLMLYEGFYDVLRRNSQLASSIMETLLSQIKQYYLPQQDLLPPLKLEGCIMAQGDQIFLQEPLAHLLCCIQHCLAWYKSTVHLCKGAEDEEEEEDVGFEQNFEEMLESVTRRMIKSELEDFELDKSADFSPSSGVGVKNNIYAIQVMGICEVLIEYNFKIGNFSKNKFEDVLGLFTCYNKLSEILKEKAGKNKSTLGNRIARSFLSMGFVSTLLTALFRDNAQSHEESLAVLRSSTEFMRYAVSVALQKVQQLEEMGQTDGPDGQNPEKMFQNLCKITRVLLWRYTSIPTAVEESGKKKGKSISLLCLEGLLRIFNTMQQLYAARIPQFLQALDITDGDAEEADINVTEKAAFQIRQFQRSLVNQLSSAEDDFNSKETQLLITILSTLSKLLDPGSQQFLQFLTWTVKICKENALEDLSCCKGLLTLLFSLHVLYKSPVSLLRELAQDIHACLGDIDQDVEIESRSHFAIVNVKTAAPTVCLLVLGQADKVLEEVDWLIKRLTILGSDTSEDSTQASNQTQALEKGVILQLGTLLTVFHELVQTALPAGSCVDSLLRSLSKTYAILTSLIKHYIQACRSTSNTVPGRLEKLVKLSGSHLTPQCYSFITYVQNIHSESLSFAEEKKKKKKEDETAVVSTVMAKVLRDTKPIPNLIFAIEQYEKFLIHLSKKSKVNLMQYMKLSTSRDFRINASMLDSVLQEQNTEDAENEPDNNQSGTAEQPDENQEPQKKRRRKK
With B1, the binding result with Gallus gallus FANCD2 [1] is recorded as “binds”.

B2: phosphomimetic chicken FANCI (I^3D) (natural protein, Gallus gallus (chicken), UniProt B0I564 1-1338, looked up)
chain: MAQRILQLAAEGSPERLQEALQGLTEGELGDMVTRQALRGRETAALLKGIFKGSPCSQQSGVLRRLQVYKHCVSLVESGDLHVGKVSEIIGLLMLEARQLPGHALAELATLFVEVIKRGSLSNGKSLELFSTVLTALSNSKESLAYGKGELNGEEFKKQLINTLCSSKWDPQCVIHLANMFRDIPLSGEELQFVVEKVLRMFSKLDLQEIPPLVYQLLLLSAKGSKKTVLEGIISFFNQLDKRQKEEQRVPQSADLEVATVPLDQLRHVEGTVILHIVSAINLDQDIGEELIKHLKTEQQKDPGKALCPFSVSLLLSTAVKHRLQEQIFDFLKTSITRSCKDLQILQASKFLQDLCPQQYDVTAVILEVVKNSAFGWDHVTQGLVDLGFSLMESYEPKKSFGGKAAETNLGLSKMPAQQACKLGASILLETFKVHEPIRSDILEQVLNRVLTKAASPVSHFIDLLSNIVVSAPLVLQNSSSRVTETFDNLSFLPIDTVQGLLRAVQPLLKVSMSVRDSLILVLQKAIFSRQLDARKAAVAGFLLLLRNFKILGSLTSDQCDQAIGADQVQADVHACYNSAANEAFCLEILGSLRRCLSQQADVRLMLYEGFYDVLRRNSQLASSIMETLLSQIKQYYLPQQDLLPPLKLEGCIMAQGDQIFLQEPLAHLLCCIQHCLAWYKSTVHLCKGAEDEEEEEDVGFEQNFEEMLESVTRRMIKSELEDFELDKSADFSPSSGVGVKNNIYAIQVMGICEVLIEYNFKIGNFSKNKFEDVLGLFTCYNKLSEILKEKAGKNKSTLGNRIARSFLSMGFVSTLLTALFRDNAQSHEESLAVLRSSTEFMRYAVSVALQKVQQLEEMGQTDGPDGQNPEKMFQNLCKITRVLLWRYTSIPTAVEESGKKKGKSISLLCLEGLLRIFNTMQQLYAARIPQFLQALDITDGDAEEADINVTEKAAFQIRQFQRSLVNQLSSAEDDFNSKETQLLITILSTLSKLLDPGSQQFLQFLTWTVKICKENALEDLSCCKGLLTLLFSLHVLYKSPVSLLRELAQDIHACLGDIDQDVEIESRSHFAIVNVKTAAPTVCLLVLGQADKVLEEVDWLIKRLTILGSDTSEDSTQASNQTQALEKGVILQLGTLLTVFHELVQTALPAGSCVDSLLRSLSKTYAILTSLIKHYIQACRSTSNTVPGRLEKLVKLSGSHLTPQCYSFITYVQNIHSESLSFAEEKKKKKKEDETAVVSTVMAKVLRDTKPIPNLIFAIEQYEKFLIHLSKKSKVNLMQYMKLSTSRDFRINASMLDSVLQEQNTEDAENEPDNNQSGTAEQPDENQEPQKKRRRKK
For B2, the binding result with Gallus gallus FANCD2 [2] is recorded as “binds”.

The record behind these values is PMC7613635 (Nature structural & molecular biology, 2022).
